The data set concerns the target SARS-CoV-2 Spike RBD (SARS-CoV-2, UniProt P0DTC2 319-541). The data set can be described thus: electrochemical aptasensor.

Data on one molecule can be found in paper PMC9933633.

B1: Spike RBD aptamer (51-base, Song et al. 2020) (structured_DNA)
DNA: CAGCACCGACCTTGTGCTTTGGGAGTGCTGGTCCAAGGGCGTTAATGGACA
modifications: 5' C6-NH2
Turning to B1, the binding result was “binds”.
